Measured values as given in the supplement of paper PMC10126150.
± gives the standard deviation of the averaged measurements.

test system: ATP; assay: switch fluorescence ratio, 500 uM ATP over buffer (Cy3 cluster intensity, sum of 5 cycles each) (fold (ratio)); higher = stronger signal-on switching upon ATP binding; sequences stand for … in TCGTCGGCAGCGTCAGATGTGTATAAGAGACAGTTTTTTTTTTTTTTTTTTTTTTTTT…TC; conditions: aptamer strand: ATP DNA aptamer (quencher-CACCTGGGGGAGTATTGCGGAGGAAGG + anchor), 100 nM annealed; ATP concentration: 500 uM
How it was run: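 Five buffer/ATP imaging cycles were run on Cy3-labelled switching-strand clusters on a modified Illumina MiSeq flow-cell, with NaOH stripping and re-annealing between cycles. In each cycle, clusters annealed to 100 nM quencher-labelled ATP aptamer were imaged in selection buffer, then after 15 min with 500 uM ATP at 22 °C. Per cluster, the fluorescence ratio is summed target-cycle over summed buffer-cycle Cy3 intensity, averaged per switch-domain sequence. Only clusters within 100-1000 RFU were kept.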
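Further: ATP exposure 15 min at 22 °C before imaging.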

| Sequence | switch fluorescence ratio |
| --- | --- |
| ATTGAATTTT | 0.9795 ± 0.0038 |
| ATTGATGCTT | 0.979 ± 0.018 |
| ATTGATGGCG | 0.982 ± 0.06 |
| ATTGATGTCC | 0.976 ± 0.0098 |
| ATTGATTCTT | 1.01 ± 0.051 |
| ATTGATTGAT | 1.02 ± 0.024 |
| ATTGATTTAG | 0.9756 ± 0.0095 |
| ATTGCAATGG | 1.6 ± 0.034 |
| ATTGCAGCTG | 0.9637 ± 0.0015 |
| ATTGCAGGGA | 0.993 ± 0.042 |
| ATTGCAGGTT | 0.965 ± 0.01 |
| ATTGCAGTTG | 0.954 ± 0.013 |
| ATTGCATGCA | 0.985 ± 0.026 |
| ATTGCCCACC | 1.026 ± 0.0086 |
| ATTGCCGGGA | 1.01 ± 0.0089 |
| ATTGCGACAC | 1.23 ± 0.035 |
| ATTGCGTGGT | 0.986 ± 0.024 |
| ATTGCTAAGC | 1.039 ± 0.0054 |
| ATTGCTACTT | 1.031 ± 0.0052 |
| ATTGCTCTGT | 1.04 ± 0.036 |
| ATTGCTTATT | 0.974 ± 0.018 |
| ATTGGACAGT | 1 ± 0.075 |
| ATTGGACTGG | 0.998 ± 0.057 |
| ATTGGAGGTT | 0.995 ± 0.013 |
| ATTGGCTAGT | 0.966 ± 0.02 |

| Sequence | switch fluorescence ratio |
| --- | --- |
| ATTGGGAAAA | 1.03 ± 0.019 |
| ATTGGGATGC | 1.04 ± 0.02 |
| ATTGGGCGCG | 0.995 ± 0.018 |
| ATTGGGGGAC | 0.98 ± 0.03 |
| ATTGGGGGAT | 1.02 ± 0.078 |
| ATTGGGGGCC | 0.967 ± 0.028 |
| ATTGGGGGTG | 1.04 ± 0.012 |
| ATTGGGGTGG | 0.935 ± 0.12 |
| ATTGGGGTGT | 1.01 ± 0.022 |
| ATTGGGTAGT | 0.9765 ± 0.0084 |
| ATTGGGTGTT | 1.02 ± 0.029 |
| ATTGGGTTCT | 0.991 ± 0.057 |
| ATTGGTTCCA | 1.03 ± 0.041 |
| ATTGGTTGTG | 0.988 ± 0.035 |
| ATTGTAATAG | 1.04 ± 0.05 |
| ATTGTAGAGT | 0.985 ± 0.026 |
| ATTGTAGTCT | 1.04 ± 0.06 |
| ATTGTATTTG | 1.01 ± 0.034 |
| ATTGTCTGAG | 1.01 ± 0.011 |
| ATTGTCTTTG | 0.982 ± 0.018 |
| ATTGTGACGA | 1.03 ± 0.027 |
| ATTGTGACTG | 0.975 ± 0.037 |
| ATTGTGCTTG | 1 ± 0.027 |
| ATTGTGGGCC | 0.975 ± 0.023 |
| ATTGTGGTCA | 0.999 ± 0.017 |

| Sequence | switch fluorescence ratio |
| --- | --- |
| ATTGTTACAG | 1.01 ± 0.016 |
| ATTGTTATTA | 1.028 ± 0.0035 |
| ATTGTTGGGG | 0.967 ± 0.025 |
| ATTGTTGTTC | 1.06 ± 0.057 |
| ATTGTTTACA | 0.969 ± 0.051 |
| ATTGTTTGGG | 1.03 ± 0.019 |
| ATTGTTTTGC | 1.009 ± 0.0025 |
| ATTTAAATCT | 1.02 ± 0.023 |
| ATTTAACGTC | 1.02 ± 0.08 |
| ATTTAACTTA | 1.008 ± 0.0016 |
| ATTTAAGAAG | 0.99 ± 0.032 |
| ATTTAAGGGG | 0.9949 ± 0.0092 |
| ATTTAAGGGT | 0.993 ± 0.032 |
| ATTTAATGGG | 0.99 ± 0.035 |
| ATTTACATCA | 1.02 ± 0.013 |
| ATTTAGCCGC | 1.02 ± 0.017 |
| ATTTAGCTTA | 1.0052 ± 0.00027 |
| ATTTAGTACT | 1.04 ± 0.021 |
| ATTTAGTCAG | 0.9737 ± 0.0053 |
| ATTTAGTTCT | 0.981 ± 0.027 |
| ATTTATGAGG | 1.01 ± 0.016 |
| ATTTATGCAG | 0.9992 ± 0.0035 |
| ATTTATGTGC | 1.01 ± 0.025 |
| ATTTATTGGC | 1.02 ± 0.042 |
| ATTTATTGGT | 1.007 ± 0.0062 |

| Sequence | switch fluorescence ratio |
| --- | --- |
| ATTTCAAATA | 1.01 ± 0.043 |
| ATTTCAAATT | 1.02 ± 0.028 |
| ATTTCACGGC | 1.05 ± 0.024 |
| ATTTCAGGTC | 1.02 ± 0.013 |
| ATTTCCATGT | 0.978 ± 0.011 |
| ATTTCCCTGT | 1.01 ± 0.044 |
| ATTTCCGCAG | 3.82 ± 0.56 |
| ATTTCGTAGG | 1.01 ± 0.024 |
| ATTTCTGGGA | 0.982 ± 0.031 |
| ATTTCTTGGG | 0.99703 ± 0.00034 |
| ATTTGAGCGT | 1.02 ± 0.014 |
| ATTTGAGTTG | 0.965 ± 0.01 |
| ATTTGATAGT | 1.007 ± 0.0052 |
| ATTTGCATAC | 2.62 ± 0.39 |
| ATTTGCATGC | 1 ± 0.012 |
| ATTTGCCGGG | 1.031 ± 0.0081 |
| ATTTGCGAAT | 0.966 ± 0.039 |
| ATTTGCGAGG | 1.01 ± 0.017 |
| ATTTGCGGCT | 0.958 ± 0.062 |
| ATTTGCGGTG | 1.01 ± 0.019 |
| ATTTGCTGCG | 0.947 ± 0.087 |
| ATTTGGAAAG | 0.999 ± 0.021 |
| ATTTGGATGC | 1.01 ± 0.042 |
| ATTTGGGACT | 1.03 ± 0.036 |
| ATTTGGGAGA | 0.978 ± 0.042 |

| Sequence | switch fluorescence ratio |
| --- | --- |
| ATTTGGGGGA | 0.999 ± 0.029 |
| ATTTGGGGGC | 0.973 ± 0.057 |
| ATTTGGGGGG | 1 ± 0.047 |
| ATTTGGGTGA | 1.03 ± 0.047 |
| ATTTGGGTGG | 0.987 ± 0.041 |
| ATTTGGGTGT | 1.05 ± 0.02 |
| ATTTGGTATC | 0.997 ± 0.017 |
| ATTTGGTCGT | 0.979 ± 0.048 |
| ATTTGGTGTT | 1.01 ± 0.032 |
| ATTTGTAAGA | 0.9927 ± 0.0045 |
| ATTTGTCCGT | 1.03 ± 0.018 |
| ATTTGTGGTT | 0.9752 ± 0.0085 |
| ATTTGTTTTC | 0.953 ± 0.013 |
| ATTTTAAAGA | 1.009 ± 0.0062 |
| ATTTTAAGGG | 1.003 ± 0.0042 |
| ATTTTAATGG | 0.9907 ± 0.0036 |
| ATTTTAATTG | 1.02 ± 0.016 |
| ATTTTAGATG | 1 ± 0.025 |
| ATTTTAGGGA | 0.98918 ± 0.00041 |
| ATTTTAGGGG | 0.983 ± 0.035 |
| ATTTTAGTTT | 1 ± 0.016 |
| ATTTTATCTC | 1.22 ± 0.27 |
| ATTTTCGGTT | 0.997 ± 0.034 |
| ATTTTCGTTT | 0.945 ± 0.024 |
| ATTTTGAAAG | 1.01 ± 0.022 |

| Sequence | switch fluorescence ratio |
| --- | --- |
| ATTTTGATAC | 1.01 ± 0.044 |
| ATTTTGATAT | 1.01 ± 0.018 |
| ATTTTGATGT | 0.995 ± 0.051 |
| ATTTTGCGTT | 0.998 ± 0.031 |
| ATTTTGGGGC | 1.03 ± 0.018 |
| ATTTTGGTAT | 1.01 ± 0.027 |
| ATTTTGGTGA | 1 ± 0.035 |
| ATTTTGTGGG | 1 ± 0.023 |
| ATTTTTAAAC | 0.992 ± 0.066 |
| ATTTTTAAGG | 0.995 ± 0.021 |
| ATTTTTAATC | 1.06 ± 0.14 |
| ATTTTTAGAC | 1.03 ± 0.022 |
| ATTTTTATAC | 1.02 ± 0.021 |
| ATTTTTCTAT | 0.987 ± 0.027 |
| ATTTTTCTGA | 1 ± 0.019 |
| ATTTTTGCGT | 1.01 ± 0.041 |
| ATTTTTGCTT | 0.994 ± 0.019 |
| ATTTTTGGAG | 0.9792 ± 0.0053 |
| ATTTTTGGCC | 1.02 ± 0.035 |
| ATTTTTGTCT | 0.983 ± 0.06 |
| ATTTTTGTTT | 0.985 ± 0.023 |
| ATTTTTTAAA | 0.994 ± 0.027 |
| ATTTTTTAGT | 0.983 ± 0.013 |
| ATTTTTTGGA | 1.01 ± 0.026 |
| ATTTTTTGTG | 0.9732 ± 0.0082 |

| Sequence | switch fluorescence ratio |
| --- | --- |
| ATTTTTTTCC | 1.38 ± 0.57 |
| ATTTTTTTTG | 0.987 ± 0.023 |
| ATTTTTTTTT | 1 ± 0.026 |
| CAAAAAGGCG | 1.03 ± 0.054 |
| CAAAAAGTAG | 1.014 ± 0.0062 |
| CAAAACAGGT | 1.01 ± 0.032 |
| CAAAAGGAAA | 0.992 ± 0.022 |
| CAAAATAAGA | 1.01 ± 0.017 |
| CAAAATACGG | 1.07 ± 0.052 |
| CAAACATTTT | 0.9795 ± 0.0044 |
| CAAACTCCCA | 1.16 ± 0.18 |
| CAAAGCTATT | 1.008 ± 0.006 |
| CAAAGCTTGA | 1.01 ± 0.036 |
| CAAAGGGAAA | 1.02 ± 0.033 |
| CAAAGGGCGG | 0.9985 ± 0.0012 |
| CAAAGGTTAG | 1.0209 ± 0.001 |
| CAAAGTACAA | 1.17 ± 0.02 |
| CAAAGTGTGG | 0.989 ± 0.054 |
| CAAAGTTGGT | 0.994 ± 0.05 |
| CAAATAAACC | 1.03 ± 0.018 |
| CAAATAACGT | 0.9893 ± 0.0097 |
| CAAATAGATG | 1 ± 0.029 |
| CAAATCCTAT | 1.01 ± 0.013 |
| CAAATGGTCT | 1 ± 0.013 |
| CAAATTGGGT | 0.996 ± 0.04 |

| Sequence | switch fluorescence ratio |
| --- | --- |
| CAAATTTGAT | 1.03 ± 0.027 |
| CAAATTTGGG | 1.02 ± 0.014 |
| CAAATTTGTC | 0.994 ± 0.02 |
| CAACAACTTC | 1.01 ± 0.0034 |
| CAACAGGGGT | 1.14 ± 0.23 |
| CAACATGTTT | 1.02 ± 0.03 |
| CAACCGCCTT | 1.46 ± 0.12 |
| CAACCTGAAC | 2.39 ± 0.2 |
| CAACGAGTGG | 1.012 ± 0.0028 |
| CAACGGGGGT | 1.03 ± 0.018 |
| CAACGTAGGT | 1.05 ± 0.013 |
| CAAGAAAAGT | 0.978 ± 0.048 |
| CAAGAGGGTC | 1.04 ± 0.067 |
| CAAGAGTATT | 0.995 ± 0.022 |
| CAAGAGTGC | 1.025 ± 0.0091 |
| CAAGATCGGC | 1.01 ± 0.079 |
| CAAGATGGGA | 0.963 ± 0.082 |
| CAAGATGTTG | 0.987 ± 0.047 |
| CAAGCCGGGG | 0.979 ± 0.021 |
| CAAGCGTGCG | 0.98 ± 0.012 |
| CAAGGAAGGA | 0.9967 ± 0.005 |
| CAAGGAGTCT | 1.02 ± 0.035 |
| CAAGGATACA | 1 ± 0.034 |
| CAAGGATTTA | 1.02 ± 0.044 |
| CAAGGGAGGG | 0.991 ± 0.047 |
